According to patent US20240342246A1 (YALE UNIVERSITY, published 2024):
Residue numbers refer to the chain shown, from its start. Names and notes keep the numbering of the source.

Target: IL-12 receptor β1 (IL-12Rβ1) (human, UniProt P42701 24-662)
Test: cell-based or functional assay

B1: wild-type (WT) IL-12 (ligand)
chain 1: IWELKKDVYVVELDWYPDAPGEMVVLTCDTPEEDGITWTLDQSSEVLGSGKTLTIQVKEFGDAGQYTCHKGGEVLSHSLLLLHKKEDGIWSTDILKDQKEPKNKTFLRCEAKNYSGRFTCWWLTTISTDLTFSVKSSRGSSDPQGVTCGAATLSAERVRGDNKEYEYSVECQEDSACPAAEESLPIEVMVDAVHKLKYENYTSSFFIRDIIKPDPPKNLQLKPLKNSRQVEVSWEYPDTWSTPHSYFSLTFCVQVQGKSKREKKDRVFTDKTSATVICRKNASISVRAQDRYYSSSWSEWASVPCS
chain 2: RNLPVATPDPGMFPCLHHSQNLLRAVSNMLQKARQTLEFYPCTSEEIDHEDITKDKTSTVEACLPLELTKNESCLNSRETSFITNGSCLASRKTSFMMALCLSSIYEDLKMYQVEFKTMNAKLLMDPKRQIFLDQNMLAVIDELMQALNFNSETVPQKSSLEEPDFYKTKIKLCILLHAFRIRAVTIDRVMSYLNAS
  EC50 of STAT4 phosphorylation in human NK cells (flow cytometry, FIG. 3A): 0.0408 µg/mL
  EC50 of STAT4 phosphorylation in human NK cells (flow cytometry, FIG. 3B): 0.0574 µg/mL

B2: IL-12 H216A/K217A/K219A triple mutant (HKK) (ligand)
chain 1: B1 chain 1 with H194A, K195A, K197A
chain 2: B1 chain 2
  EC50 of STAT4 phosphorylation in human NK cells (flow cytometry, FIG. 3A): 0.839 µg/mL

B3: H216A/K219A IL-12 (IL-12p40 HK219 with WT IL-12p35) (ligand)
chain 1: B1 chain 1 with H194A, K197A
chain 2: B1 chain 2
  EC50 of STAT4 phosphorylation in human NK cells (flow cytometry, FIG. 3B): 0.29 µg/mL
